This note sets out measurements from publication PMC4446433, “Crystal structure of the Bloom's syndrome helicase indicates a role for the HRDC domain in conformational changes” (Nucleic Acids Research, 2015).

The target in this experiment is T1, BLM^636–1072, including the RecA domains (human, UniProt P54132 636-1072).
T1 construct: also called RecA core; D1/D2 domains
The experiment can be described thus: BLI; biotinylated HRDC domain immobilised on streptavidin biosensors, RecA domains in solution, in the presence of ADP or ATP; 20-mM HEPES pH 7.5, 200-mM NaCl, 5% glycerol; 60-s windows; Octet RED384; apparent. To be noted: both partners purified. Background: BLI is a label-free optical method that tracks binding on a fibre tip over time.

T1 sequence (P54132 636-1072): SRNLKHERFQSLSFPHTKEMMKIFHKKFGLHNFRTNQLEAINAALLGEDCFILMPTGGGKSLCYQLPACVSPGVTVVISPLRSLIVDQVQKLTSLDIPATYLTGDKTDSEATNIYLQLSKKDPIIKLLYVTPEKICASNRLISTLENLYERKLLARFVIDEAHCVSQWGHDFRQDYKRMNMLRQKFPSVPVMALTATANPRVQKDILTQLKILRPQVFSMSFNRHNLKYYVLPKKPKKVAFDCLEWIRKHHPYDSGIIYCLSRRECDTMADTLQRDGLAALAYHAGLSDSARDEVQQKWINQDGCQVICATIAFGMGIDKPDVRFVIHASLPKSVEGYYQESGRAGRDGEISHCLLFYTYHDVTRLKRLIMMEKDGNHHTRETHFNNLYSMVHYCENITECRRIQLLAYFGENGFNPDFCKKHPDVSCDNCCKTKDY

B1: BLM^1206–1298, encoding the HRDC domain (domain or fragment, human, UniProt P54132 1206-1298, looked up)
chain: AKVSQREEMVKKCLGELTEVCKSLGKVFGVHYFNIFNTVTLKKLAESLSSDPEVLLQIDGVTEDKLEKYGAEVISVLQKYSEWTSPAEDSSPG
modifications: biotin (on the C-terminal biotin acceptor sequence)
notes: The His10 tag is TEV-cleavable, but no cleavage is described; also called isolated HRDC domain; biotinylated HRDC domain; source: E. coli in TB medium with biotin, purified (Ni-IDA, S75 Superdex)
Turning to B1, the Kd fell in the range of 30 to 100 µM.
